Measured values reported in publication PMC7577714, “Regulation of chaperone function by coupled folding and oligomerization” (Science Advances, 2020).
Positions count from the first letter of the chain named. In names and notes the source's numbering stands.

What was measured:
Skp(V117P) (E. coli) = Skp(V117P) (E. coli) (UniProt P0AEU7); assay: solution NMR (signal intensities of monomer and trimer) + SEC-MALS; fraction of monomer against total Skp concentration, 25°C, 20 mM MES pH 6.5, 150 mM NaCl; monomer to trimer; C0.5 is the protein concentration at which half of the molecules are monomeric
[1] = target: tOmpA, the eight-stranded transmembrane domain of OmpA (residues 1 to 177); assay: NMR quantification of Skp-bound tOmpA after complex assembly (holdase assay); excess of denatured [U-2H,15N]-tOmpA added dropwise to unlabeled Skp in 20 mM MES pH 6.5, 150 mM NaCl, aggregate spun down, tOmpA signals in 2D [15N,1H]-TROSY of the supernatant, 37°C, normalised to Skp(WT)
[2] = target: the molecule itself; assay: SEC-MALS; Skp variants alone, elution concentration ≃80 μM, 25°C, 20 mM MES pH 6.5, 150 mM NaCl; monomer to trimer
P0AEU7 [3] = assay: as above
[4] = target: the molecule itself; assay: as above; remark: listed apart in the source
[5] = target: the molecule itself; assay: solution NMR (signal intensities of monomer and trimer) + SEC-MALS; fraction of monomer against total Skp concentration, 25°C, 20 mM MES pH 6.5, 150 mM NaCl; monomer to trimer; C0.5 is the protein concentration at which half of the molecules are monomeric
P0AEU7 [6] = assay: solution NMR (signal intensities of monomer and trimer); Skp variants alone at 37°C, 20 mM MES pH 6.5, 150 mM NaCl; monomer to trimer; conditions: other: solution NMR (signal intensities of monomer and trimer)
[7] = target: the molecule itself; assay: solution NMR (signal intensities of monomer and trimer) + SEC-MALS; fraction of monomer against total Skp concentration, 25°C, 20 mM MES pH 6.5, 150 mM NaCl; monomer to trimer; C0.5 is the protein concentration at which half of the molecules are monomeric; remark: listed apart in the source

Q: How did the C0.5 (Skp(V117P) (E. coli)) turn out when “Skp(V117P) (from UniProt P0AEU7 21-161) (natural protein)” was run?
A: > 1000 µM

Q: What about the Skp activity (% of WT), amount of Skp-bound tOmpA [1] of the same molecule?
A: 1 % of WT

B1: Skp(WT), seventeen kilodalton protein, periplasmic chaperone of Escherichia coli (natural protein, E. coli, UniProt P0AEU7 21-161, looked up)
chain: ADKIAIVNMGSLFQQVAQKTGVSNTLENEFKGRASELQRMETDLQAKMKKLQSMKAGSDRTKLEKDVMAQRQTFAQKAQAFEQDRARRSNEERGKLVTRIQTAVKSVANSQDIDLVVDANAVAYNSSDVKDITADVLKQVK
notes: Stands in a monomer-trimer equilibrium; the active form is the homotrimer; The thrombin-cleavable His6-tag of pET28b was not cleaved; Isotope-labelled for NMR in some samples; source: E. coli BL21-(λ DE3)-Lemo, purified (Ni-NTA, SEC); not shown: His6, N-terminal, kept
Q: What does the source list for B1?
A: stoichiometry N [2]: 3; Monomer (%) at c ≃ 80 μM (P0AEU7 [3]): 3%; Trimer (%) at c ≃ 80 μM [4]: 97%; C0.5 [5]: 1.5 µM; Skp activity (% of WT), amount of Skp-bound tOmpA [1]: 100 % of WT

B2: Skp(A108L) (natural protein, E. coli, UniProt P0AEU7 21-161, looked up)
chain: B1 chain with A108L
notes: Monomer-trimer equilibrium strongly shifted toward the monomer; also called Skp(108L); source: E. coli BL21-(λ DE3)-Lemo, purified (Ni-NTA, SEC); not shown: His6, N-terminal, kept
Q: Which Monomer (%) at c ≃ 80 μM (P0AEU7 [3]) does the source give for B2 here?
A: 53%

Q: And the “Trimer (%) at c ≃ 80 μM” value [4]?
A: 47%

Q: What about the “monomer (%) at 1 mM, 37°C” value (P0AEU7 [6]) of the same molecule?
A: around 95% monomer at a concentration of 1 mM

Q: And the “monomer (%) at 37°C” value (P0AEU7 [6])?
A: more than 80% in its monomeric state

Q: And the “stoichiometry N” value [7]?
A: 3

Q: What about the C0.5 [5] of the same molecule?
A: 80 ± 20 µM

Q: And the Skp activity (% of WT), amount of Skp-bound tOmpA [1]?
A: 55 % of WT

B3: Skp(A103L) (natural protein, E. coli, UniProt P0AEU7 21-161, looked up)
chain: B1 chain with A103L
notes: Monomer-trimer equilibrium essentially as the wild type; source: E. coli BL21-(λ DE3)-Lemo, purified (Ni-NTA, SEC); not shown: His6, N-terminal, kept
Q: What does the source list for B3?
A: Monomer (%) at c ≃ 80 μM (P0AEU7 [3]): 6%; Trimer (%) at c ≃ 80 μM [4]: 94%; stoichiometry N [7]: 3; C0.5 [5]: 1.5 µM; Skp activity (% of WT), amount of Skp-bound tOmpA [1]: 100 % of WT

B4: Skp(A103R) (natural protein, E. coli, UniProt P0AEU7 21-161, looked up)
chain: B1 chain with A103R
notes: Monomer-trimer equilibrium shifted toward the monomer; source: E. coli BL21-(λ DE3)-Lemo, purified (Ni-NTA, SEC); not shown: His6, N-terminal, kept
Q: For B4, which Monomer (%) at c ≃ 80 μM (P0AEU7 [3]) is on record?
A: 14%

Q: What about the “Trimer (%) at c ≃ 80 μM” value [4] of the same molecule?
A: 86%

Q: What about the “stoichiometry N” value [7] of the same molecule?
A: 3

Q: What about the C0.5 [5] of the same molecule?
A: 7 ± 2 µM

Q: What about the Skp activity (% of WT), amount of Skp-bound tOmpA [1] of the same molecule?
A: 87 % of WT

B5: Skp(A108R) (natural protein, E. coli, UniProt P0AEU7 21-161, looked up)
chain: B1 chain with A108R
notes: Fully monomeric up to 1 mM; source: E. coli BL21-(λ DE3)-Lemo, purified (Ni-NTA, SEC); not shown: His6, N-terminal, kept
Q: B5 was tested. Which C0.5 [5] did it give?
A: > 1000 µM

Q: What about the Skp activity (% of WT), amount of Skp-bound tOmpA [1] of the same molecule?
A: 1 % of WT
